# Entries after “also recorded” stand apart in the source; their conditions may differ.
# Assays:
# [1] = tested on: T1, Nictide (RLGWWRFYTLRRARQGNTKQR)
# T1 sequence: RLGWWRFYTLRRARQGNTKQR
# [2] = tested on: Nictide with the phosphorylated Thr mutated to Ser
# [3] = tested on: LRRKtide with the +2 residue mutated to Glu
# [4] = tested on: LRRKtide with the +5 residue mutated to Glu
# [5] = tested on: Nictide with -4Trp mutated to Ala
# [6] = tested on: LRRKtide with -2Tyr mutated to Glu
# [7] = tested on: Nictide with +1Leu mutated to Pro
# [8] = tested on: Nictide with Thr introduced at the +2 position
# [9] = tested on: LRRKtide with -5Arg mutated to Ala
# [10] = tested on: Nictide peptides with combined -5, -4 and -1 mutations
# [11] = tested on: LRRKtide with +5Arg mutated to Ala
# [12] = tested on: LRRKtide with the +2 residue mutated to Pro
# [13] = tested on: LRRKtide with the +5 residue mutated to Pro
# [14] = tested on: Nictide with +2 Arg mutated to Ala
# [15] = tested on: LRRKtide with +2Arg mutated to Ala
# [16] = tested on: LRRKtide with -4 (Asp) mutated to Ala
# [17] = tested on: LRRKtide with +1Leu mutated to Ala
# [18] = tested on: LRRKtide with -2Tyr mutated to Arg
# [19] = tested on: T2, LRRKtide peptide (RLGRDKYKTLRQIRQ)
# T2 sequence: RLGRDKYKTLRQIRQ
# [20] = tested on: Nictide with Thr introduced at the -2 position
# [21] = tested on: LRRKtide with -2Tyr mutated to Ala
# [22] = tested on: Nictide with -1 Tyr mutated to Ala
# [23] = tested on: GST-Nictide
# [24] = tested on: Nictide with Thr residues at both the -2 and +2 positions
# [25] = tested on: Nictide with -5Trp mutated to Ala
substance,measurement,setting,value
GST-LRRK2 1326-2527 [G2019S],Km of peptide phosphorylation,[1],Calculated Km values are 6micromolar for Nictide; also recorded: Km of 10 µM
same,Vmax of peptide phosphorylation,[1],Vmax of 26 U/mg
same,fold decrease of Km against LRRKtide,[1],20-fold lower than LRRKtide
same,fold increase of Vmax against LRRKtide,[1],1.7-fold higher than LRRKtide
same,peptide phosphorylation,[2],almost abolished phosphorylation of the peptide by LRRK2
same,Km against wild type LRRKtide,[3],increased Km similarly to the Ala mutation
same,fold decrease of Vmax against wild type LRRKtide,[3],+2 Arg (4 to 28-fold)
same,Km against wild type LRRKtide,[4],increased Km similarly to the Ala mutation
same,fold decrease of Vmax against wild type LRRKtide,[4],+5 Arg (mutation to Glu 4-fold)
same,fold decrease of Vmax against Nictide,[5],decreased the Vmax value of phosphorylation 2 to 5-fold
same,fold increase of Km against Nictide,[5],increased Km values 2 to 3-fold
same,fold increase of Vmax against Nictide,[5],enhanced Vmax of LRRK2 phosphorylation ~2-fold
same,fold decrease of Vmax against wild type LRRKtide,[6],-2 Tyr (2 to 10-fold)
same,fold increase of Km against wild type LRRKtide,[6],increased Km 4.4-fold
same,Km against Nictide,[7],without affecting Km
same,fold decrease of Vmax against Nictide,[7],only decreased Vmax of LRRK2 phosphorylation under 2-fold
same,Km and Vmax against Nictide,[8],moderately increased the Km and reduced the Vmax value
same,fold increase of Km against wild type LRRKtide,[9],-5Arg (2.5 fold)
same,fold increase of Km against Nictide,[10],the Km values were substantially increased 5 to 20-fold compared to Nictide
same,fold increase of Km against wild type LRRKtide,[11],+5Arg (4-fold)
same,Km against wild type LRRKtide,[12],increased Km similarly to the Ala mutation
same,fold decrease of Vmax against wild type LRRKtide,[12],+2 Arg (4 to 28-fold)
same,Km against wild type LRRKtide,[13],increased Km similarly to the Ala mutation
same,fold decrease of Vmax against Nictide,[14],decreased the Vmax value of phosphorylation 2 to 5-fold
same,fold decrease of Vmax against wild type LRRKtide,[15],+2 Arg (4 to 28-fold)
same,fold increase of Km against wild type LRRKtide,[15],+2Arg (4.5-fold)
same,fold decrease of Km against wild type LRRKtide,[16],decreasing Km 2.3-fold
same,fold decrease of Vmax against wild type LRRKtide,[17],+1Leu (2-fold)
same,peptide phosphorylation,[17],had no effect on LRRK2 phosphorylation
same,Km against wild type LRRKtide,[18],slightly decreased Km
same,fold decrease of Vmax against wild type LRRKtide,[18],-2 Tyr (2 to 10-fold)
same,Km of peptide phosphorylation,[19],Km of 200 µM
same,Vmax of peptide phosphorylation,[19],Vmax of 14 U/mg
same,Km and Vmax against Nictide,[20],moderately increased the Km and reduced the Vmax value
same,fold decrease of Vmax against wild type LRRKtide,[21],-2 Tyr (2 to 10-fold)
same,fold increase of Km against wild type LRRKtide,[21],-2Tyr (2.4-fold)
same,fold increase of Km against Nictide,[22],increased Km values 2 to 3-fold
same,fold increase of Vmax against Nictide,[22],enhanced Vmax of LRRK2 phosphorylation ~2-fold
same,phosphorylation of GST fusion proteins (32P autoradiography),[23],phosphorylated to a significantly greater extent by LRRK2 than the other GST-fusion proteins
same,fold increase of Km against Nictide,[24],increased Km value of over 10-fold
same,fold increase of Km against Nictide,[25],increasing the Km value 3-fold
same,fold increase of Vmax against Nictide,[25],enhanced Vmax of LRRK2 phosphorylation ~2-fold

# From patent US20100068742
